In patent US20050025779A1:

Tests used:
Test in all cases: cell-based or functional assay
[1] = molecular target: HIV-1 92HT594 envelope glycoprotein, on pseudotyped virus (HIV-1)
[2] = molecular target: HIV-1 JRCSF envelope glycoprotein, on pseudotyped virus (HIV-1)
[3] = molecular target: HIV-1 NL4-3 envelope glycoprotein, on pseudotyped virus (HIV-1)
[4] = molecular target: amphotropic murine leukemia virus envelope protein, on pseudotyped virus (amphotropic murine leukemia virus)

Substance	IC50 of virus infectivity (neutralization), U87 CD4/CCR5 cells [1] [µg/mL]	IC50 of virus infectivity (neutralization), U87 CD4/CXCR4 cells [1] [µg/mL]	IC50 of virus infectivity (neutralization), U87 CD4/CCR5 cells [2] [µg/mL]	IC50 of virus infectivity (neutralization), U87 CD4/CXCR4 cells [3] [µg/mL]	IC50 of virus infectivity (neutralization), U87 CD4/CCR5 cells [4] [µg/mL]	IC50 of virus infectivity (neutralization), U87 CD4/CXCR4 cells [4] [µg/mL]
monoclonal antibody 2G12	1.94	2.39	0.764	0.473	> 50	> 50
monoclonal antibody 4E10	2.94	2.67	7.91	1.42	> 50	> 50
monoclonal antibody 2F5	0.857	0.748	2.1	0.477	> 50	> 50
